{
  "source": "paper PMC10702427",
  "about": "“Effects of Dimerization on the Deacylase Activities of Human SIRT2” (Biochemistry, 2023)",
  "molecules": {"B1": {"name": "myristoyl-H4K16 peptide (13mer) (peptide)", "peptide": "KGLGKGGAK(Myristoyl)RHRK", "notes": "also called myristoyl peptide; myristoylated peptide; source: synthetic peptide (New England Peptide)"}, "B2": {"name": "full-length SIRT2 (amino acids 1–389), Q8IXJ6-1 1-389 (enzyme)", "chain": "MAEPDPSHPLETQAGKVQEAQDSDSDSEGGAAGGEADMDFLRNLFSQTLSLGSQKERLLDELTLEGVARYMQSERCRRVICLVGAGISTSAGIPDFRSPSTGLYDNLEKYHLPYPEAIFEISYFKKHPEPFFALAKELYPGQFKPTICHYFMRLLKDKGLLLRCYTQNIDTLERIAGLEQEDLVEAHGTFYTSHCVSASCRHEYPLSWMKEKIFSEVTPKCEDCQSLVKPDIVFFGESLPARFFSCMQSDFLKVDLLLVMGTSLQVQPFASLISKAPLSTPRLLINKEKAGQSDPFLGMIMGLGGGMDFDSKKAYRDVAWLGECDQGCLALAELLGWKKELEDLVRREHASIDAQSGAGVPNPSTSASPKKSPPPAKDEARTTEREKPQ"}, "B3": {"name": "SIRT2cat catalytic domain (protein)", "chain": "ERLLDELTLEGVARYMQSERCRRVICLVGAGISTSAGIPDFRSPSTGLYDNLEKYHLPYPEAIFEISYFKKHPEPFFALAKELYPGQFKPTICHYFMRLLKDKGLLLRCYTQNIDTLERIAGLEQEDLVEAHGTFYTSHCVSASCRHEYPLSWMKEKIFSEVTPKCEDCQSLVKPDIVFFGESLPARFFSCMQSDFLKVDLLLVMGTSLQVQPFASLISKAPLSTPRLLINKEKAGQSDPFLGMIMGLGGGMDFDSKKAYRDVAWLGECDQGCLALAELLGWKKELEDLVRREHASIDAQS"}, "B4": {"name": "SIRT2^cat(Q142A/E340A) (domain or fragment, human)", "chain": "SGEADMDFLRNLFSQTLSLGSQKERLLDELTLEGVARYMQSERCRRVICLVGAGISTSAGIPDFRSPSTGLYDNLEKYHLPYPEAIFEISYFKKHPEPFFALAKELYPGAFKPTICHYFMRLLKDKGLLLRCYTQNIDTLERIAGLEQEDLVEAHGTFYTSHCVSASCRHEYPLSWMKEKIFSEVTPKCEDCQSLVKPDIVFFGESLPARFFSCMQSDFLKVDLLLVMGTSLQVQPFASLISKAPLSTPRLLINKEKAGQSDPFLGMIMGLGGGMDFDSKKAYRDVAWLGECDQGCLALAELLGWKKALEDLVRREHASIDAQS"}, "B5": {"name": "FAM-myristoyl-H4K16 peptide (peptide)", "peptide": "{FAM-PEG4′}-KGLGKGGAK(Myristoyl)RHRK-OH"}},
  "key": {"[1]": {"target": "SIRT2 catalytic domain (SIRT2^cat), amino acids 34–356 (human) (UniProt Q8IXJ6)", "assay": "cross-linking; 1 mM Bis(NHS)-PEG5, 10 μM SIRT2 protein, room temperature 1 h, PBS with 1 mM DTT, with or without 12 μM acylated H4K16 peptide, ADP-ribose or the 286-313 peptide; SDS-PAGE, Coomassie bands quantified"}, "[2]": {"target": "SIRT2 catalytic domain (SIRT2^cat), amino acids 34–356 (human) (UniProt Q8IXJ6)", "assay": "SEC; analytical SEC, Bio-Rad Enrich SEC 650 column, PBS with 1 mM DTT, 100 μL injected (SIRT2^cat 2-80 μM; full-length SIRT2 56 μM); Kd of dimer to monomers estimated from the peak concentrations at elution, averaged over all runs with two peaks"}, "[3]": {"target": "SIRT2 catalytic domain (SIRT2^cat), amino acids 34–356 (human) (UniProt Q8IXJ6)", "assay": "cross-linking; Bis(NHS)-PEG5, 10 μM SIRT2^cat pre-equilibrated with SIRT2 inhibitors, 50 μL, 2% DMSO; SDS-PAGE, Coomassie bands quantified"}, "[4]": {"target": "SIRT2 catalytic domain (SIRT2^cat), amino acids 34–356 (human) (UniProt Q8IXJ6)", "assay": "cross-linking; 1 mM Bis(NHS)-PEG5, 10 μM SIRT2 protein, room temperature 1 h, PBS with 1 mM DTT, with or without 12 μM acylated H4K16 peptide, ADP-ribose or the 286-313 peptide; SDS-PAGE, Coomassie bands quantified", "remark": "listed apart in the source"}, "SIRT2^cat(Q142A/E340A)": {"target": "B4", "assay": "cross-linking; 1 mM Bis(NHS)-PEG5, 10 μM SIRT2 protein, room temperature 1 h, PBS with 1 mM DTT, with or without 12 μM acylated H4K16 peptide, ADP-ribose or the 286-313 peptide; SDS-PAGE, Coomassie bands quantified", "details": "both partners purified"}, "[5]": {"target": "T1, SIRT2 catalytic domain (SIRT2^cat), amino acids 34–356 (human, UniProt Q8IXJ6-1 34-356)", "T1 chain": "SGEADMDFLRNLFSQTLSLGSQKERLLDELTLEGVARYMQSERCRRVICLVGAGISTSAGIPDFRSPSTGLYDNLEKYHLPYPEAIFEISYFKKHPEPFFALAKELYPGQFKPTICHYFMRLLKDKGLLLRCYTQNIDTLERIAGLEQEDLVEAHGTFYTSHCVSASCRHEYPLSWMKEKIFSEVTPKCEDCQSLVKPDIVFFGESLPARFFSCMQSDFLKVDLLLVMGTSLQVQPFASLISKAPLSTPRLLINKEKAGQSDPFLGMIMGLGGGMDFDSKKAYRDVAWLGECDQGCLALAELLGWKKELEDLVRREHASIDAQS"}, "[6]": {"target": "T2, full-length SIRT2 (amino acids 1–389) (human), Q8IXJ6", "T2 chain": "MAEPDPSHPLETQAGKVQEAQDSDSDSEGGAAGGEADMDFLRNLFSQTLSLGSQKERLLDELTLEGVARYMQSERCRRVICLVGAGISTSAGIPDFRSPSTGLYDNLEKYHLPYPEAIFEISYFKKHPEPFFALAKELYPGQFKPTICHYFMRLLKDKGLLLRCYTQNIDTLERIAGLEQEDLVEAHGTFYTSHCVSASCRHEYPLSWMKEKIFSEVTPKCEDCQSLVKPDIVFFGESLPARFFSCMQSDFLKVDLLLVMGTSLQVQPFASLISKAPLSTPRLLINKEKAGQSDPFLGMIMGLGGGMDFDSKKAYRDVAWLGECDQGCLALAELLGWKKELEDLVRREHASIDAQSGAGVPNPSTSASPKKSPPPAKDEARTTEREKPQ", "assay": "cross-linking; 1 mM Bis(NHS)-PEG5, 10 μM SIRT2 protein, room temperature 1 h, PBS with 1 mM DTT, with or without 12 μM acylated H4K16 peptide, ADP-ribose or the 286-313 peptide; SDS-PAGE, Coomassie bands quantified", "details": "remark: other sources report otherwise"}, "[7]": {"target": "T2, full-length SIRT2 (amino acids 1–389) …", "assay": "SEC; analytical SEC, Bio-Rad Enrich SEC 650 column, PBS with 1 mM DTT, 100 μL injected (SIRT2^cat 2-80 μM; full-length SIRT2 56 μM); Kd of dimer to monomers estimated from the peak concentrations at elution, averaged over all runs with two peaks", "details": "remark: other sources report otherwise"}, "[8]": {"target": "myristoyl-H4K16 peptide H4K16 peptide (Homo sapiens, UniProt P62805, myristoylated K16)", "assay": "gel shift assay"}, "[9]": {"target": "the molecule itself", "assay": "cell-based or functional assay"}},
  "note": "Values joined by “and” are separate entries in the source; they are usually repeats but may differ in a detail not shown here. Equal values may be shown once. Read-outs that look alike come from different tables or passages of the source. Primed or numbered codes have the meaning given here. Where no end group is shown, it is not given here. The star is where a group is joined. Myristoyl = CCCCCCCCCCCCCC(=O)*; PEG4′ = PEG4 linker",
  "data": [
    {"molecule": "SIRT2 catalytic domain (SIRT2^cat), amino acids 34–356 (from UniProt Q8IXJ6-1 34-356) (domain or fragment)", "values": [
      {"measurement": "percent of the protein cross-linked as dimer", "setting": "[1]", "value": 50.8, "unit": "%"},
      {"measurement": "percent of the protein cross-linked as trimer", "setting": "[1]", "value": 6, "unit": "%"},
      {"measurement": "percent of the protein migrating as monomer after cross-linking", "setting": "[1]", "value": 43.2, "unit": "%"},
      {"measurement": "Kd", "setting": "[2]", "value": 121, "unit": "nM"},
      {"measurement": "stoichiometry N", "setting": "[2]", "value": 2},
      {"measurement": "percent of the protein cross-linked as dimer, no inhibitor", "setting": "[3]", "value": "49.9% and 50.6%"},
      {"measurement": "percent of the protein cross-linked as dimer, with 20 μM ascorbyl palmitate", "setting": "[3]", "value": 32.1, "unit": "%"},
      {"measurement": "percent of the protein cross-linked as dimer, with 200 μM ascorbyl palmitate", "setting": "[3]", "value": 31.8, "unit": "%"},
      {"measurement": "percent of the protein cross-linked as dimer", "setting": "[4]", "value": 47.4, "unit": "%"}
    ]},
    {"molecule": "B1", "values": [
      {"measurement": "binding result", "setting": "SIRT2^cat(Q142A/E340A)", "value": "binds"},
      {"measurement": "Kd", "setting": "[5]", "value": 1000, "unit": "nM"}
    ]},
    {"molecule": "B2", "values": [
      {"measurement": "percent of the protein oligomeric after cross-linking", "setting": "[6]", "value": 50, "unit": "%"},
      {"measurement": "stoichiometry N", "setting": "[7]", "value": 2}
    ]},
    {"molecule": "B3", "values": [
      {"measurement": "Kd", "setting": "[8]", "value": "~1500", "unit": "nM"}
    ]},
    {"molecule": "B4", "values": [
      {"measurement": "fold decrease in de-4-oxononanoylase catalytic efficiency (kcat/Km) of the mutant against wild-type SIRT2^cat", "setting": "[9]", "value": 4, "unit": "fold"},
      {"measurement": "fold decrease in deacetylase catalytic efficiency (kcat/Km, acetyl-H4K16 peptide, 1 mM NAD+) of the mutant against wild-type SIRT2^cat", "setting": "[9]", "value": 6, "unit": "fold"}
    ]},
    {"molecule": "B5", "values": [
      {"measurement": "Kd", "setting": "[5]", "value": 2000, "unit": "nM"}
    ]}
  ]
}
